The text below walks through data of PMC12172627.

Like-named read-outs stand apart in the source and are kept apart here.

What all share (test): EMSA
(In general: Mobility shift assays separate free from complexed probe on a gel.)

Data set [1] has as its target T1, E2F1 full-length (human, UniProt Q01094 1-437).
Data set [2] deals with T1, E2F1 full-length. This is another data set of the same source.
Data set [3] concerns the target E2F1 DBD L132E (UniProt Q01094 110-194, L132E).
Data set [4] addresses E2F1 DBD R166H (UniProt Q01094 110-194, R166H).
Data set [5] deals with T1, E2F1 full-length. This is another data set of the same source.

T1 sequence (Q01094 whole entry): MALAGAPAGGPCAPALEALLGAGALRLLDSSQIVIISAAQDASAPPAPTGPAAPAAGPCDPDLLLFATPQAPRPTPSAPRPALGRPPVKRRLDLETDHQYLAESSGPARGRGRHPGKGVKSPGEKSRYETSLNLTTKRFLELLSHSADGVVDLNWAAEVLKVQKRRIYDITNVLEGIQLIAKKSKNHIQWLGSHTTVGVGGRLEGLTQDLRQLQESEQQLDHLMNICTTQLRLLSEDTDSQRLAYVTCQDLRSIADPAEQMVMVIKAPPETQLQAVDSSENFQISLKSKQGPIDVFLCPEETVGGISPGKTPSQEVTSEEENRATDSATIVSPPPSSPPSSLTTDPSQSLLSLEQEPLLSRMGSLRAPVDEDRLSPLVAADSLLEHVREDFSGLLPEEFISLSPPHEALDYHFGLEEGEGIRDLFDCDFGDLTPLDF
E2F1 DBD R166H, sequence (Q01094 110-194 R166H): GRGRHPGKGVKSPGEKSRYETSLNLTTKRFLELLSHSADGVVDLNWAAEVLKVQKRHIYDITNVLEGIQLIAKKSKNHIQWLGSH
E2F1 DBD L132E, sequence (Q01094 110-194 L132E): as the sequence (Q01094 110-194 R166H) above, with L23E, H57R counted along it

As for AUCGAUUUCCAGCUCGAUCGAUCGAGCUGGAAAUCGAU (structured_RNA) [BS1 double stranded (stem)], in data set [1], the binding result was “binds”.

With AUCGAUUUCCCUCUCGAUCGAUCGAGAGGGAAAUCGAU (structured_RNA) [BS4 double stranded (stem)], the binding result in data set [1] is “binds”.

As for AUCGAUUCCCCGCUCGAUCGAUCGAGCGGGGAAUCGAU (structured_RNA) [BS3 double stranded (stem)], the binding result in data set [2] was “binds”.

As for AUCGAUUUCCCGCUCGAUCGAUCGAGCGGGAAAUCGAU (structured_RNA) [BS2 double stranded (stem)], the binding result in data set [1] is recorded as “binds”.

B1: 42-mer dsDNA (2XE2F1_DNA_BS) (dsDNA)
DNA 1: GCCGTTTTCGCGCTTAAATTTGAGAAAGGGCGCGAAACTGGA
DNA 2: TCCAGTTTCGCGCCCTTTCTCAAATTTAAGCGCGAAAACGGC
B1: the binding result in data set [3], in data set [4] and in data set [5] was “binds” throughout.
